The values that follow come from patent US20250388652A1.

For assay [1], the target named is F protein mutant RSV-DS-Cav1-B with a DS-Cav1 structure before fusion (respiratory syncytial virus subtype B, strain 18537) (UniProt P13843).
For assay [2] the target is unchanged. The source holds these as a separate data set.

Sequence of anti-RSV monoclonal antibody Clesrovimab (RB1) (VH): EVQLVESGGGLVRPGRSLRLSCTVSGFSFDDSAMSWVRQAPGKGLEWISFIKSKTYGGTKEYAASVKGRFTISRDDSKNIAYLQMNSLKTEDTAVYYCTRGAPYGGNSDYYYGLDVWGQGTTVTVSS
Sequence of anti-RSV monoclonal antibody Clesrovimab (RB1) (VL): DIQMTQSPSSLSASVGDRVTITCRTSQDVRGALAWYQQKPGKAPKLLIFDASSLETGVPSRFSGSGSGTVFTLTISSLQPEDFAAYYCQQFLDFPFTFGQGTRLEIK
Sequence of anti-RSV monoclonal antibody Nirsevimab (MEDI8897) (VH): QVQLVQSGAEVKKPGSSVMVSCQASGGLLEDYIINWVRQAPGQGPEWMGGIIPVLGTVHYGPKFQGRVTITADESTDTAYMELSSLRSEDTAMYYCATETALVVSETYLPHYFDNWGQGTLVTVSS
Sequence of anti-RSV monoclonal antibody Nirsevimab (MEDI8897) (VL): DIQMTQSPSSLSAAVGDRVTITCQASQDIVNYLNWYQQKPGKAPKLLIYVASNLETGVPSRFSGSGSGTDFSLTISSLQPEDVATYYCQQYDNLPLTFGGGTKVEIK

As for “anti-RSV monoclonal antibody Clesrovimab (RB1)”, in assay [1], the Kd was found to be 0.00895 nM, the off-rate (koff) was determined as 8.21e-05 s⁻¹ and the kon came out at 9.17e+06 M⁻¹ s⁻¹.
For “anti-RSV monoclonal antibody Nirsevimab (MEDI8897)”, in assay [2], the EC50 (read off the curve) was 10 nM. In assay [1], this substance yielded a Kd of 3.08 nM, a koff of 0.000333 s⁻¹ and a kon of 108000 M⁻¹ s⁻¹.
